Assay results: US10596234B2, “Compositions and methods to inhibit viral replication” (priority 2016, dated 2020)

Legend:
cGAS [1] = experiment: Real-time PCR in THP-1 cells stably expressing UL37, transfected with HT-DNA; format: cell-based, human; settings: THP-1 stable cell lines
Experimental: THP-1 or L929 cells were infected with HSV-1 (MOI=5) or stimulated with HT-DNA (2 μg/ml) or cGAMP (2 μg/ml) for 6 h unless specifically indicated otherwise. Cells were washed with cold PBS, and total RNA was extracted by using TRIzol Reagent (Invitrogen). RNA was digested with DNase I (New England Biolabs) to remove genomic DNA. One microgram of total RNA was used for reverse transcription with PrimeScript Reverse Transcriptase (Clontech) according to the manufacturer's instruction. Approximately 0.5% of the cDNA was used as template in each quantitative real-time PCR (qRT-PCR) reaction with SYBR master mix (Applied biosystems).
Lentivirus production was carried out in 293T cells as described previously. THP-1 or L929 cells were infected with lentivirus containing UL37 or UL37 C819S mutant. After 36 h, THP-1 cells were selected with puromycin at 1 μg/ml and L929 cells were selected with puromycin at 5 μg/ml.

PRDIII promoter = experiment: Dual-luciferase reporter assay (PRDIII, SeV infection); format: cell-based, human; settings: 293T cells, SeV 100 HAU/ml
Experimental: HEK293T cells, seeded in 24-well plates (˜50% cell density), were transfected with IFN-β, PRDIII (ISRE) or NF-κB reporter plasmid cocktail (50 ng of luciferase reporter plasmid and 5 ng of pRL Renilla luciferase control vector) and expression plasmid (empty plasmid, one or multiple plasmids depending on the experiment) by calcium phosphate precipitation. Cells were infected with SeV (100 HA/ml), HSV-1 for 16 h, transfected with Poly [I:C] for 16 h or directly harvested 30-36 h post transfection. Whole cell lysates were used to determine the activity of firefly luciferase and renilla luciferase by a microplate reader (FLUOstar Omega).

cGAS [2] = molecular target: T1, cGAS (Mus musculus, UniProt Q8C6L5); experiment: In vitro cGAMP activity assay; format: biochemical; settings: in vitro cGAMP reaction
T1 construct: Purified mcGAS(141-507) was deamidated by purified FLAG-UL37 in vitro; made in house; host or cells: E. coli BL21 (DE3)
Experimental: 1 μM of MBP-cGAS or mutant proteins was mixed with 100 μM ATP and 100 μM GTP and 10 μCi [α-P32]-ATP in reaction buffer (20 mM Tris-Cl [pH 7.5], 150 mM NaCl, 5 mM MgCl2, 1 mM dithiothreitol [DTT]). After 2 h of incubation at 37° C., 2 μl of reaction solution was spotted onto PEI-Cellulose thin layer chromatography plate (Sigma). Reaction products were resolved with running buffer (1 M (NH4)2SO4, 1.5 M KH2PO4, pH 3.8). The TLC plates were dried and scanned with Phosphoimager (Fuji).

cGAS [3] = experiment: In vitro deamidation assay (cGAS); format: biochemical, mouse; settings: purified proteins
Experimental: The in vitro deamidation assay was performed as previously described. Briefly, 5 μg of purified MBP-mcGAS or MBP-mcGAS-DDEE mutant on amylose resin was incubated with 0.5 gig of purified FLAG-UL37 or FLAG-UL37C819S at 30° C. for 45 min in deamidation buffer (50 mM Tris-HCl [pH 7.5], 100 mM NaCl, and 5 mM MgCl2). Then the reaction was stopped by adding rehydration buffer and the eluted proteins were analyzed by two-dimensional gel electrophoresis.

cGAS [4] = experiment: cGAMP reporter assay (THP1-Lucia); format: cell-based, human; settings: THP-1 cells transfected with HT-DNA (HT-DNA alone approximately 60 ng)
Experimental: THP-1 Cells were transfected with HT-DNA (2 μg/ml) or infected with HSV-1 virus for 6 h. Cell extracts were prepared by heating at 95° C. for 5 min to denature most proteins, and then the precipitated proteins were removed by centrifugation. The supernatant containing cGAMP was delivered to digitonin-permeabilized (2.5 μg/ml for 30 min) THP1-Lucia cells at 37° C. for 30 min. The cells were cultured for another 20 h before Lucia reporter activity was measured according to the manufacturer's instruction (InvivoGen). Pure cGAMP was diluted and used as standard for the assay.

RIG-I [5] = experiment: Two-dimensional gel electrophoresis of RIG-I deamidation in cells; format: cell-based, human; settings: 2-DGE and immunoblotting
Experimental: Cells (1×10^6) were lysed in 150 μl rehydration buffer (8 M Urea, 2% CHAPS, 0.5% IPG Buffer, 0.002% bromophenol blue) by three pulses of sonication and whole cell lysates were centrifuged at 20,000 g for 15 min. Supernatants were loaded to IEF strips for focusing with a program comprising: 20 V, 10 h (rehydration); 100 V, 1 h; 500 V, 1 h; 1000 V, 1 h; 2000 V, 1 h; 4000 V, 1 h; 8000 V, 4 h. After IEF, strips were incubated with SDS equilibration buffer (50 mM Tris-HCl [pH8.8], 6 M urea, 30% glycerol, 2% SDS, 0.001% Bromophenol Blue) containing 10 mg/ml DTT for 15 min and then SDS equilibration buffer containing 2-iodoacetamide for 15 min. Strips were washed with SDS-PAGE buffer, resolved by SDS-PAGE, and analyzed by immunoblotting.

IFN-β and RANTES = experiment: Cytokine ELISA, HEK293 RIG-I stable cell lines infected with HSV-1; format: cell-based, human; settings: HSV-1-infected cells, supernatant at 16 hpi
Experimental: Commercial cytokine ELISA kits used in this study include: human IFN-β (PBL Assay Science) and human RANTES (R&D Systems). Cytokine levels in the supernatant from cultured cells were assessed according to manufacturer's instruction. Absorbance was determined with FLUOstar Omega (BMG Labtech.).

RIG-I [6] = experiment: Gel filtration of purified RIG-I (oligomerization); format: cell-based, human; settings: cells infected with HSV-1, 4 h
Experimental: Virus-infected HEK293T/Flag-RIG-I or HeLa/Flag-RIG-I stable cells were harvested and lysed in cold Triton X-100 buffer (20 mM Tris, pH 7.5, 150 mM NaCl, 1.5 mM MgCl2, 20 mM β-glycerophosphate, 1 mM sodium orthovanadate, 10% glycerol, 0.5 mM EGTA, 0.5% Triton X-100, 1 mM PMSF and 10 μg/ml leupeptin). Centrifuged supernatant was filtered and subjected to incubation with anti-Flag-conjugated agarose beads for 2 h at 4° C. Beads were then extensively washed and proteins were eluted with 3× Flag peptide at 0.2 mg/ml.
Gel filtration with superose 6 was performed as described previously. Briefly, eluted proteins (200-300 μl) were loaded to superose 6 column and subjected to gel filtration analysis with Buffer B (20 mM Tris-HCl, pH 7.6, 150 mM NaCl, 1 mM EDTA, 0.5 mM EGTA, 0.5% Triton X-100, 20 mM NaF, 20 mM β-glycerophosphate, 1 mM Na3VO4, 2.5 mM metabisulphite [sodium salt], 5 mM benzamidine). Elution was collected in 0.5 ml fractions and aliquots of fractions were analyzed by immunoblotting.

HSV-1 = HSV-1 plaque assay in HEK293 cells stably expressing RIG-I wild-type or mutants; format: cell-based; settings: HEK293 stable cells, HSV-1 MOI=0.5

T1 sequence (Q8C6L5 141-507): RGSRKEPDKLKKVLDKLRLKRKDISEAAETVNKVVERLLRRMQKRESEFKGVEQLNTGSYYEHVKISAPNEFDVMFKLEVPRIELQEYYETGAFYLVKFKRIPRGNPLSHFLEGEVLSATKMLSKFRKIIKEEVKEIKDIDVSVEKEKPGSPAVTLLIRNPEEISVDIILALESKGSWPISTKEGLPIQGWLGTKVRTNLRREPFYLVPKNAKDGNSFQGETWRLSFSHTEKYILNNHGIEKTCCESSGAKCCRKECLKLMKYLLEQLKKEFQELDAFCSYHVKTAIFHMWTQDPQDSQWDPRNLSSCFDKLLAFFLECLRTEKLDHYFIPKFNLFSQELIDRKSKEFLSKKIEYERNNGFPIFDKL

## UL37C819S
cGAS [1]
  effect on expression of IFNB1, ISG56 and CXCL10 induced by HT-DNA: no detectable effect on IFNB1 and ISG56 expression
PRDIII promoter
  blockade of SeV-induced PRDIII promoter activation: greatly impaired blockade of PRDIII induction by SeV
cGAS [2]
  effect of added UL37 on cGAS-mediated cGAMP production: less, albeit still significant, inhibition of cGAMP production
cGAS [3]
  cGAS deamidation in vitro (2DGE shift): failed to do so
cGAS [4]
  intracellular cGAMP: ~85 ng per one million THP-1 cells

B1: RIG-I-QQ (protein)
chain: MTTEQRRSLQAFQDYIRKTLDPTYILSYMAPWFREEEVQYIQAEKNNKGPMEAATLFLKFLLELQEEGWFRGFLDALDHAGYSGLYEAIESWDFKKIEKLEEYRLLLKRLQPEFKTRIIPTDIISDLSECLINQECEEILQICSTKGMMAGAEKLVECLLRSDKENWPKTLKLALEKERNKFSELWIVEKGIKDVETEDLEDKMETSDIQIFYQEDPECQNLSENSCPPSEVSDTNLYSPFKPRNYQLELALPAMKGKNTIICAPTGCGKTFVSLLICEHHLKKFPQGQKGKVVFFANQIPVYEQQKSVFSKYFERHGYRVTGISGATAENVPVEQIVENNDIIILTPQILVNNLKKGTIPSLSIFTLMIFDECHNTSKQHPYNMIMFNYLDQKLGGSSGPLPQVIGLTASVGVGDAKNTDEALDYICKLCASLDASVIATVKHNLEELEQVVYKPQKFFRKVESRISDKFKYIIAQLMRDTESLAKRICKDLEQLSQIQNREFGTQKYEQWIVTVQKACMVFQMPDKDEESRICKALFLYTSHLRKYQDALIISEHARMKDALDYLKDFFSNVRAAGFEEIEQDLTQRFEEKLQELESVSRDPSNENPKLEDLCFILQEEYHLNPETITILFVKTRALVDALKNWIEGNPKLSFLKPGILTGRGKTNQNTGMTLPAQKCILDAFKASGDHNILIATSVADEGIDIAQCNLVILYEYVGNVIKMIQTRGRGRARGSKCFLLTSNAGVIEKEQINMYKEKMMNDSILRLQTWDEAVFREKILHIQTHEKFIRDSQEKPKPVPDKENKKLLCRKCKALACYTADVRVIEECHYTVLGDAFKECFVSRPHPKPKQFSSFEKRAKIFCARQNCSHDWGIHVKYKTFEIPVIKIESFVVEDIATGVQTLYSKWKDFHFEKIPFDPAEMSK
RIG-I [5]
  charge shift of RIG-I (deamidation) upon UL37 expression or recombinant HSV-1 infection: deamidation-resistant
IFN-β and RANTES
  IFN-β and RANTES in supernatant: Increased IFN-β and RANTES expression
RIG-I [6]
  size of RIG-I elution fractions (oligomerization): 440-670 kDa
HSV-1
  reduction of HSV-1 replication / titer: 75-90%
